Measurements: US20260201064A1 (ISU ABXIS, published 2026)
Where two headings read alike, the source gives them in different places.

T1: recombinant human ASM protein (human, UniProt P17405 47-630)
T1 construct: Recombinant human ASM in solution; also called acid sphingomyelinase (ASM) protein
T1 sequence: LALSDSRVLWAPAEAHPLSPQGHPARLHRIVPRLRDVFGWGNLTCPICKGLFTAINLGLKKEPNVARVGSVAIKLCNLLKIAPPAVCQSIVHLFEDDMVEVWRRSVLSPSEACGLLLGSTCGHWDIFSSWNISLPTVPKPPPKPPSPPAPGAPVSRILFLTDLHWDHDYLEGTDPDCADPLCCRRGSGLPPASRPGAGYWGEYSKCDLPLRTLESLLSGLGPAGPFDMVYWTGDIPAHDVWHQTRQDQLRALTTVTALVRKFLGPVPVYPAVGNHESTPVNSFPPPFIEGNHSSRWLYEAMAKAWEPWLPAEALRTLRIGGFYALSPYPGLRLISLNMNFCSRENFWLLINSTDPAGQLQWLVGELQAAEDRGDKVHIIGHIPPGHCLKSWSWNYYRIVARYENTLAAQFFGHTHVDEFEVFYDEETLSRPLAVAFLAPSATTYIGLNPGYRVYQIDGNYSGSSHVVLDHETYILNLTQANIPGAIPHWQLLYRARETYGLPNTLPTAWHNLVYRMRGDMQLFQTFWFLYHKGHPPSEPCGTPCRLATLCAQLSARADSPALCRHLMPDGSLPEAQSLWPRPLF


Legend:
Assay in all cases: BLI (Octet), antibody on AHC sensor
[1] = target: T1, recombinant human ASM protein
Description: (§1) The binding affinity, to the ASM protein, of the produced antibodies specifically binding to the ASM protein and the interactive dynamics therebetween were measured using an Octet® QK384 system (Pall Life Sciences).
(§2) First, an antibody specifically binding to the ASM protein produced in Example 1 was captured using an anti-human IgG Fc capture (AHC) biosensor, and 1.25, 2.5, 5, 10, or 20 nM recombinant human ASM protein solution was added thereto. […] The association constant (Kₐ), dissociation constant (Kd), and equilibrium dissociation constant (KD) for each antibody were determined using Octet® analysis software (Pall Life® Sciences). As a result, the binding affinities, to the human ASM protein, of the antibodies with mutations in the heavy chain CDR regions of the antibody #9104 as depicted in Table 1 are shown in Table 5, and the binding affinities, to the human ASM protein, of the antibodies with mutations of the light chain CDR regions in the antibody #9104 as depicted in Table 2 are shown in Table 6.

[2] = target: T1, recombinant human ASM protein; remark: listed apart in the source
Description: as §1, §2

[3] = target: T1, recombinant human ASM protein; remark: listed apart in the source

| Binder | Kd [1] | koff [1] | kon [1] | Kd [2] | koff [2] | kon [2] | Kd [3] | koff [3] | kon [3] |
| --- | --- | --- | --- | --- | --- | --- | --- | --- | --- |
| #9104 (antibody, V domains shown, Parental antibody; also called antibody #9104) VH: EVQLLESGGGLVQPGGSLRLSCAASGFTFSNYYMSWVRQAPGKGLEWVSGIYYGSGNIYYADSVKGRFTISRDNSKNTLYLQMNSLRAEDTAVYYCARDTPGFDYWGQGTLVTVSS VL: QSVLTQPPSASGTPGQRVTISCTGSSSNIGNNAVNWYQQLPGTAPKLLIYYDSHRPSGVPDRFSGSKSGTSASLAISGLRSEDEADYYCGAWDYSLSAYVFGGGTKLTVLG | 2.25 nM | 0.000873 s⁻¹ | 389000 M⁻¹ s⁻¹ | 2.25 nM | 0.000873 s⁻¹ | 389000 M⁻¹ s⁻¹ | 2.19 nM | 0.000855 s⁻¹ | 391000 M⁻¹ s⁻¹ |
| #9104v-H33 (antibody, human IgG4 S228P, lambda, V domains shown, Full-length IgG, lambda) VH: EVQLLESGGGLVQPGGSLRLSCAASGFTFSNYYMSWVRQAPGKGLEWVSGVYYPSGNPYYADSVKGRFTISRDNSKNTLYLQMNSLRAEDTAVYYCARDTPGFDYWGQGTLVTVSS VL: QSVLTQPPSASGTPGQRVTISCTGSSSNIGNNAVNWYQQLPGTAPKLLIYYDSHRPSGVPDRFSGSKSGTSASLAISGLRSEDEADYYCGAWDYSLSAYVFGGGTKLTVLG | 0.517 nM | 0.000108 s⁻¹ | 208000 M⁻¹ s⁻¹ | – | – | – | – | – | – |
| #9104v-H30 (antibody, human IgG4 S228P, lambda, V domains shown, Full-length IgG, lambda) VH: EVQLLESGGGLVQPGGSLRLSCAASGFTFSNYYMSWVRQAPGKGLEWVSGTYYSSGGIYYADSVKGRFTISRDNSKNTLYLQMNSLRAEDTAVYYCARDTPGFDYWGQGTLVTVSS VL: QSVLTQPPSASGTPGQRVTISCTGSSSNIGNNAVNWYQQLPGTAPKLLIYYDSHRPSGVPDRFSGSKSGTSASLAISGLRSEDEADYYCGAWDYSLSAYVFGGGTKLTVLG | 0.762 nM | 0.000151 s⁻¹ | 199000 M⁻¹ s⁻¹ | – | – | – | – | – | – |
| #9104v-H25 (antibody, human IgG4 S228P, lambda, V domains shown, Full-length IgG, lambda) VH: EVQLLESGGGLVQPGGSLRLSCAASGFTFSNYYMSWVRQAPGKGLEWVSGTYYASGGIYYADSVKGRFTISRDNSKNTLYLQMNSLRAEDTAVYYCARDTPGFDYWGQGTLVTVSS VL: QSVLTQPPSASGTPGQRVTISCTGSSSNIGNNAVNWYQQLPGTAPKLLIYYDSHRPSGVPDRFSGSKSGTSASLAISGLRSEDEADYYCGAWDYSLSAYVFGGGTKLTVLG | 0.917 nM | 0.00019 s⁻¹ | 207000 M⁻¹ s⁻¹ | – | – | – | – | – | – |
| #9104v-H22 (antibody, human IgG4 S228P, lambda, V domains shown, Full-length IgG, lambda) VH: EVQLLESGGGLVQPGGSLRLSCAASGFTFSNYYMSWVRQAPGKGLEWVSGLYYGGGTPYYADSVKGRFTISRDNSKNTLYLQMNSLRAEDTAVYYCARDTPGFDYWGQGTLVTVSS VL: QSVLTQPPSASGTPGQRVTISCTGSSSNIGNNAVNWYQQLPGTAPKLLIYYDSHRPSGVPDRFSGSKSGTSASLAISGLRSEDEADYYCGAWDYSLSAYVFGGGTKLTVLG | 0.798 nM | 0.000157 s⁻¹ | 197000 M⁻¹ s⁻¹ | – | – | – | – | – | – |
| #9104v-H24 (antibody, human IgG4 S228P, lambda, V domains shown, Full-length IgG, lambda) VH: EVQLLESGGGLVQPGGSLRLSCAASGFTFSNYYMSWVRQAPGKGLEWVSGLYYGSGIPYYADSVKGRFTISRDNSKNTLYLQMNSLRAEDTAVYYCARDTPGFDYWGQGTLVTVSS VL: QSVLTQPPSASGTPGQRVTISCTGSSSNIGNNAVNWYQQLPGTAPKLLIYYDSHRPSGVPDRFSGSKSGTSASLAISGLRSEDEADYYCGAWDYSLSAYVFGGGTKLTVLG | 1.01 nM | 0.000206 s⁻¹ | 204000 M⁻¹ s⁻¹ | – | – | – | – | – | – |
| #9104v-H31 (antibody, human IgG4 S228P, lambda, V domains shown, Full-length IgG, lambda) VH: EVQLLESGGGLVQPGGSLRLSCAASGFTFSNYYMSWVRQAPGKGLEWVSGVYYGSGTPYYADSVKGRFTISRDNSKNTLYLQMNSLRAEDTAVYYCARDTPGFDYWGQGTLVTVSS VL: QSVLTQPPSASGTPGQRVTISCTGSSSNIGNNAVNWYQQLPGTAPKLLIYYDSHRPSGVPDRFSGSKSGTSASLAISGLRSEDEADYYCGAWDYSLSAYVFGGGTKLTVLG | 0.532 nM | 0.000141 s⁻¹ | 266000 M⁻¹ s⁻¹ | – | – | – | – | – | – |

More lines, in order of falling Kd [1], values ahead:

| Kd [1] | koff [1] | kon [1] | Kd [2] | koff [2] | kon [2] | Kd [3] | koff [3] | kon [3] | Binder |
| --- | --- | --- | --- | --- | --- | --- | --- | --- | --- |
| 2.69 nM | 0.000264 s⁻¹ | 97900 M⁻¹ s⁻¹ | – | – | – | – | – | – | #9104v-H18 (antibody, human IgG4 S228P, lambda, V domains shown, Full-length IgG, lambda) VH: EVQLLESGGGLVQPGGSLRLSCAASGFTFSNYYMSWVRQAPGKGLEWVSGIYYGSGTPYYSDSVKGRFTISRDNSKNTLYLQMNSLRAEDTAVYYCARDTPGFDYWGQGTLVTVSS VL: QSVLTQPPSASGTPGQRVTISCTGSSSNIGNNAVNWYQQLPGTAPKLLIYYDSHRPSGVPDRFSGSKSGTSASLAISGLRSEDEADYYCGAWDYSLSAYVFGGGTKLTVLG |
| 1.74 nM | 0.000305 s⁻¹ | 175000 M⁻¹ s⁻¹ | – | – | – | – | – | – | #9104v-H26 (antibody, human IgG4 S228P, lambda, V domains shown, Full-length IgG, lambda) VH: EVQLLESGGGLVQPGGSLRLSCAASGFTFSNYYMSWVRQAPGKGLEWVSGTYYASGNAYYADSVKGRFTISRDNSKNTLYLQMNSLRAEDTAVYYCARDTPGFDYWGQGTLVTVSS VL: QSVLTQPPSASGTPGQRVTISCTGSSSNIGNNAVNWYQQLPGTAPKLLIYYDSHRPSGVPDRFSGSKSGTSASLAISGLRSEDEADYYCGAWDYSLSAYVFGGGTKLTVLG |
| 0.692 nM | 0.000184 s⁻¹ | 266000 M⁻¹ s⁻¹ | – | – | – | – | – | – | #9104v-H19 (antibody, human IgG4 S228P, lambda, V domains shown, Full-length IgG, lambda) VH: EVQLLESGGGLVQPGGSLRLSCAASGFTFSNYYMSWVRQAPGKGLEWVSGIYYGSGVPYYADSVKGRFTISRDNSKNTLYLQMNSLRAEDTAVYYCARDTPGFDYWGQGTLVTVSS VL: QSVLTQPPSASGTPGQRVTISCTGSSSNIGNNAVNWYQQLPGTAPKLLIYYDSHRPSGVPDRFSGSKSGTSASLAISGLRSEDEADYYCGAWDYSLSAYVFGGGTKLTVLG |
| 0.598 nM | 0.000165 s⁻¹ | 276000 M⁻¹ s⁻¹ | – | – | – | – | – | – | #9104v-H27 (antibody, human IgG4 S228P, lambda, V domains shown, Full-length IgG, lambda) VH: EVQLLESGGGLVQPGGSLRLSCAASGFTFSNYYMSWVRQAPGKGLEWVSGTYYDSGYVYYADSVKGRFTISRDNSKNTLYLQMNSLRAEDTAVYYCARDTPGFDYWGQGTLVTVSS VL: QSVLTQPPSASGTPGQRVTISCTGSSSNIGNNAVNWYQQLPGTAPKLLIYYDSHRPSGVPDRFSGSKSGTSASLAISGLRSEDEADYYCGAWDYSLSAYVFGGGTKLTVLG |
